The subject of the data set is Saccharomyces cerevisiae. The data set is described as follows: transcriptional activation domain activity (GFP:mCherry ratio, weighted mean of sorted bins, harmonized to initial dataset scale) (arbitrary fluorescence ratio units); higher = stronger transcriptional activation. To be noted: beta-estradiol 1 µM; induction time 4 h. In outline: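 The activation activity of each tile is the read-weighted mean of bin median fluorescence, averaged across its barcodes and mapped linearly onto the scale of the initial dataset. Tiles were fused to an estradiol-inducible synthetic transcription factor, barcoded, and integrated at URA3 in yeast diploids carrying a GFP reporter. Induction used 1 uM beta-estradiol in SC for 4 hours at 30 °C, after which cells were sorted into 8 GFP:mCherry bins, and any tile with fewer than 50 reads was dropped.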

Take “KHMHLESKPPQLPPKCSSLRKPTNTLQGTNHAYHEHILNTDMDLKILEDLCNI”: the “transcriptional activation domain activity” value stood at 64100.

Turning to “RTMGKQDPYCAMRLGKEAKKTNTDRRGGQTPRWDQELRFTVHDSPDYYKLKCS”, the “transcriptional activation domain activity” value stood at 44300.

Regarding “KQYCVRPNSGRIEPGKDVEVQILLQAMKEDPPLDAKCRDKFLVQSVAVSADKE”, the “transcriptional activation domain activity” value turned out to be 40700.

As to “RNVIRGCRKPLSSRYVFLMSVTRLVIPLYFYVCPYNIIALKPSKWIWLLVLYV”, the “transcriptional activation domain activity” value was 62600.

As for “MSFYFNFYFPICLFFIFIFIVYFLFFIFYLFYFVVYFFLFLLAFIFVFFSVVY”, the “transcriptional activation domain activity” value is 41700.

With “RGAARCFCVYFFLSLWHFYENHIFFFCSLFFHSLLLCHFFFSFFCVALRLLAC”, the “transcriptional activation domain activity” value came out at 33800.

Turning to “MTVIRFLKMIGPFFFLLLSFLLFPFFFFFIPFKMTLLSFLLLFPLFILHSVHC”, the “transcriptional activation domain activity” value is 47500.

For “YFLAKMLLVWIVLALQTCEVSFSFVDTEHAYRGGVLRFVETLVKWAMEQNMSH”, the “transcriptional activation domain activity” value came to 45400.

For the sequence “EKEEAEKKKKEEAEEKEKEKEKKEKKGGKKKRASKKSSRKSKSKEAAGSGADE”, the “transcriptional activation domain activity” value worked out at 25500.

On to “VLGAAKCIPFLRWPTLHLSILLSWWDADTLVRLLKALAELHLRSITITLKIGI”, for which the “transcriptional activation domain activity” value was 55700.

Take “GIPDELAWMLCLDGLDCIDGETYNLPLLRQFMELFPSLPLTSLLTAYFLYMDI”: the “transcriptional activation domain activity” value stood at 119000.

Turning to “LYIVRLRFVHHFRINTAFVEACQLSIPPFVSVSLVSLAIAVFLNCVGHHFAAF”, the “transcriptional activation domain activity” value came out at 39400.

Turning to “SFVAYFSALWRGKQHRMTGYPIYDFFMGAELNPRMFGILDFKMFFEVRMPWYI”, the “transcriptional activation domain activity” value was 67400.

Regarding “ANLYVVLTLYSYTWIQVLIVSLSILLYFVFIAIYSQFNTFIFAGHIRLFGNGL”, the “transcriptional activation domain activity” value stood at 57500.

For “SVMKTLLDERRTSGTQPTTAPVAAEEPRLENVALENFVSIGWKLLDDSELGWY”, the “transcriptional activation domain activity” value was found to be 71200.

Regarding “MLRLLAMLAKYVAFLLVLLNIRSFPLVWHFRLFRAFIQLGLSLQWHKLTHFYL”, the “transcriptional activation domain activity” value is 60600.

As for “MFQIHFLLFFFFFFSFFLLLLCFDVSILEVYFYKLLLFSFFFMMIVDLFFLFL”, the “transcriptional activation domain activity” value was determined as 60300.

For the sequence “KPESKEKEEEEEETETETETETKPEAKEEPKEEPKEEVNNEKEAEDAAAAEAK”, the “transcriptional activation domain activity” value was 27200.

Consider “HARLKIIETATKAWSGALDADIKTKMAQSTAGFSGADVKVRAPHPLWDIHRPL”, for which the “transcriptional activation domain activity” value was 37200.

As for “FGWHIYKKIGADLAMRGKRSLSPLISSSPRLADRYKMYQIFMMLLKLDFFFFL”, the “transcriptional activation domain activity” value came out at 77900.

Turning to “MKIVWFSGPKVCTLFIFLLFCFLLSCCSAFLVSFFCWFLSCWLFLLAFGLLFF”, the “transcriptional activation domain activity” value worked out at 49400.

As to “SATEFVTVGGTGNVYHWDMEYSFSRNDDDNEDEVRVAAPEELQGQCLKFFHTG”, the “transcriptional activation domain activity” value turned out to be 51000.

As for “AFAGVLLCYFFILFYFIFFFLFFSWLLLLVEYIVWDNLINLLFLVSCFSFFFA”, the “transcriptional activation domain activity” value amounted to 55300.

As for “YQNLYFIQLLVSCWALIGMLHLSLNRFEHLHFMVYMRPSGSKYLVAISWCLFL”, the “transcriptional activation domain activity” value stood at 66900.

As to “LHLMLQKLCFAATLRIATLPDKHPLHPFVKRVYRYLFLKSHRAPRHNLFEAFQ”, the “transcriptional activation domain activity” value worked out at 55000.

For the sequence “EVKLEEAEATGASVKRKSRKSKIETDIADGADNEATPSGSRRRGRPRKSQPDP”, the “transcriptional activation domain activity” value came to 59400.

Take “FPILLRFIFTHFRMLFSCQLFCLMGFRVECLDFDPGSFILFHLTFLWLPFVLF”: the “transcriptional activation domain activity” value was 53300.

On to “DDEEENKSAPAKKSRAKKTVKKEEDDDDNNAEEAKPAPAKKSRAKKAVKKEED”, for which the “transcriptional activation domain activity” value was found to be 57900.

In the case of “IVVVVSPGVLHVDVGITILYGEVIVGLRTGTKDVLLRWKIVQVERRWLGYTPE”, the “transcriptional activation domain activity” value was determined as 30500.

Take “MVWFWFWLRYLFFFFFLFSKNTLIGLFLLLLLLLHLFLRSLPILLVCASRVFF”: the “transcriptional activation domain activity” value worked out at 53300.

As to “WIVTHSHFIPTAEAGTTGEGMGEGEDRDPDTVRLAVRSLTICMRSANIAMLVG”, the “transcriptional activation domain activity” value was 53600.

“MGLWARFICFVIVCFQIISLYCLFSCSLFFLYLQKTQPHFFLLSLFPSSFPPS”: the “transcriptional activation domain activity” value worked out at 62700.

In the case of “MRPLSWRLWRTGDSNRELLSHFLFYLGLFFFFREWLFLVLFFLFLLLLLPGVR”, the “transcriptional activation domain activity” value was 26600.

With “LIVIRIVNPVIMYFFISCFYSLLSVAFQVPFNRYYGSSGFVIYWMMSWLAMCA”, the “transcriptional activation domain activity” value was 55900.

“MFTWNRMKVLTVHAPCRTGGLARLFYNFCIKHPAMNIAWWIDEILFPLYHLAR”: the “transcriptional activation domain activity” value was 53100.

Regarding “RDVYYILHWVVAFTLVRATVMYKMLEPFIKWYGVRSQHKIMRFGEQGWLTIYY”, the “transcriptional activation domain activity” value was determined as 59800.

For “FSLFLLSLLPTADAFFPLLLFVSCWLTLYTFVLCLLSYFFYSLTLTLYVCLVS”, the “transcriptional activation domain activity” value was 55800.

For the sequence “SLYLCLGMLYLRKNPLLKEPLTLEHIKARLLGHWGSDAGQIFTYIHFNRLIKK”, the “transcriptional activation domain activity” value stood at 69300.

On to “VIIVLIFAVACHLAFGTSVVVFIWRTALLRDISKLSRTNIMPMCISQVVADVL”, for which the “transcriptional activation domain activity” value turned out to be 42900.

Consider “EEDDVKSEKSSRSKRRESTKEEVASPVRSERGSDKSSRSKKRDIVAEAAAIVS”, for which the “transcriptional activation domain activity” value was found to be 35500.

“MYIQYNILLTFPFLFLHFLFLFFFFFFFFLLFFFFLSRSPLTPSLAPPSPLLT”: the “transcriptional activation domain activity” value stood at 65300.

For “RQREGQIERRGEGRAWRTEGGARGGRRKGARREKGTGREGRRRARKKAKRDRP”, the “transcriptional activation domain activity” value was 27600.

Regarding “VGRVTDKSSLVYDWPFDESIERNFSTTATAATGESKFDINDNCNRINSKSYSK”, the “transcriptional activation domain activity” value came to 45900.

Regarding “INILIFICLPYRNFQFFLYLVPMSCSLTPCHWQVIASKLEILLLSTYWITFVA”, the “transcriptional activation domain activity” value was found to be 61200.

On to “ADAGGKDKGEKVAGDAEGAPAEGKAEVKGEARAETAVEGAEQQSNGKKRKAAS”, for which the “transcriptional activation domain activity” value was 34200.

For the sequence “LGNISAERHVLNTLSKIPAAQLHDALLVLPFSSLPALFTFLAIWVRKQWNVTL”, the “transcriptional activation domain activity” value turned out to be 56000.

Regarding “MAGVGYYDLKQLMMVFLLVWLLAICVGPWYQGCFSPSFLLFCFYQPYIFISFL”, the “transcriptional activation domain activity” value was found to be 52900.

Regarding “GNTGAGGEALVRSVGGSSAVEYPVCVEMDVVSGADGGEKLVWRTACDSRFVDG”, the “transcriptional activation domain activity” value was 44800.

For the sequence “RCKHSDCQELSPFASVFDLIDHYDHTHAFIPETLVKYSYIHLYKPSVWDLFEY”, the “transcriptional activation domain activity” value was found to be 157000.

In the case of “MWWALCFFFFLFIFVILGFVGLLVCWFVGWLAGTFVGFSGSWFSFWVAWVVWV”, the “transcriptional activation domain activity” value was found to be 60500.

Turning to “KWHSTMQSAAARGTRVLHDKRRSRVKREGGEGGGGKEERRRQRRRTCATCTRL”, the “transcriptional activation domain activity” value turned out to be 29700.

“MLVRLQNRLLLLGIFSHCVYGWHLEVDYVSLSDAIQTVVVQCRNLTFHITGLG”: the “transcriptional activation domain activity” value stood at 53100.

As for “KGGEYHRRKGDETSSQGQMGKKVKSEKGEEEKERRKKKERVKQHVVNVRVAEQ”, the “transcriptional activation domain activity” value was found to be 41900.

With “VVTRWILFIVPMLGIVWIPGILSLTTFPHATVWGVKLIWWSIWLSVVWGGWWV”, the “transcriptional activation domain activity” value stood at 38300.

As to “LRDLERSFDLLRFTWVPSIACWILPLLTRPDFSTLLSVLGETIQRFSSNFVIM”, the “transcriptional activation domain activity” value is 73700.

Turning to “MDELGKIAFGSIPPPQAEPNLIGDNFGIFVDDMFTAYEDPMAHWSFLFEDLFP”, the “transcriptional activation domain activity” value came to 151000.

For “NASPAAVVATTATATPERAVSAAAGDNNASTLTKRGRGRPRKAAKHTQAQTQA”, the “transcriptional activation domain activity” value was determined as 36500.

Consider “MALNLFQKEIFLILFLLFYYFAILLFCYFIILLFCYLIFLFFLFHLSLSSLIF”, for which the “transcriptional activation domain activity” value amounted to 26300.

With “TREMREKVEREREGRRRAREEKEKRGGGGGGGKGKKGRGGKGKGKAVPGAGAG”, the “transcriptional activation domain activity” value worked out at 49400.

On to “KAEPKKEAAKGPRNVSGVTVDDKKEGKGKAAKKGDRVEMRYIGKLKSGKVFDS”, for which the “transcriptional activation domain activity” value was 36900.

Turning to “RGERGQGAGGRGEGEGRGAGGERERRGGEREEGRGRERDERQGGKRERERGQG”, the “transcriptional activation domain activity” value is 21800.

Regarding “VPSSIPRARRLQTAMVAIWSTSIVTTFALTLFLCSFPPLWPFMLMYVIWLNYI”, the “transcriptional activation domain activity” value was determined as 49000.

For “VDNLLLPLAIHHRFLSYCLYIIGFVYFVYSLEKGHYKFQFTQFCITHMTLFLV”, the “transcriptional activation domain activity” value was 50900.

For the sequence “SLLPSPPQAVIFLVLFFSFLLLALFGYLFYFPLIPFLKTSIPIFSTYYSFFFM”, the “transcriptional activation domain activity” value was 24300.

Regarding “EKNKAEKKVKTPKSPKKEKKKEEPAAAAVEEPAKEEAAPAEAPAAPVEEPAKV”, the “transcriptional activation domain activity” value was determined as 22800.

On to “MWYFSRCTRWFLPLLLLPMPTAPPYFLLLFLLSFILHAKPCFYCVILITSLFI”, for which the “transcriptional activation domain activity” value was found to be 60200.

Consider “GREANDAAQKQRKREGARAARDGNRSAKEGNGRQDAGSRKKAGDGEGGGAERG”, for which the “transcriptional activation domain activity” value was 20600.

Consider “TGGFGSTNTGGGGLFGGGNTSNTGGGFGSTAGGFGSTNTTSAFGGAAKPAFGA”, for which the “transcriptional activation domain activity” value was determined as 19300.

With “RLILILSLLVCWAAAIIDCVFVIIAGVTGVLQPQSRYLVLLLPMLFTNFLATL”, the “transcriptional activation domain activity” value turned out to be 57300.

“KKEAAAAKKEPAKRKKTKADEEDKESAEGTESDEESKPKKKKAAPKKKGAATA”: the “transcriptional activation domain activity” value was 20600.

For “MFPFVFLSSFLSCFRLYSFNTCYIFSLILLCWYTFLLSYNGSLFCYPMIVYFL”, the “transcriptional activation domain activity” value is 70400.

On to “TFVRLVMLIAMKVFKFDFLVLSYLATIVYSVCFLTYLCDWHSIFPFAWYHHIY”, for which the “transcriptional activation domain activity” value was found to be 47000.

In the case of “KLGFQVLVQVILVIWYKPDKIPSAVNVDKEIKKGEPVDNKARVLVECVLDVFQ”, the “transcriptional activation domain activity” value came out at 51700.

On to “TIDSSGVVLTPDPLSFDIGNFDSFSTSLYGFWPLTNAFDFTPYNSGSLAWLLL”, for which the “transcriptional activation domain activity” value turned out to be 99800.

(Values after the supplement of paper PMC12636428.)
